In paper PMC12302927 one finds relative co-IP band intensity data, which are given here for 1 substance.

Common to all, as to assay: co-IP; 293T cells co-transfected with HA-tagged STAT1 (WT, K193R, K584R) and FLAG-p300; band intensities quantified; which protein was precipitated not given
For test [1], the target named is HA-tagged STAT1 (WT) (UniProt P42224).
The target of test [2] is HA-tagged STAT1 K193R (UniProt P42224).
Test [3] has as its target HA-tagged STAT1 K584R (UniProt P42224).

FLAG-p300, Q09472 1-2414: the values for the relative co-IP band intensity in test [1], in test [2] and in test [3] were 0.202, 0.194 and 0.239, respectively.
